B1: Photosystem II lipoprotein Psb27, P74367 (parent)
chain: MSFLKNQLSRLLALILVVAIGLTACDSGTGLTGNYSQDTLTVIATLREAIDLPQDAPNRQEVQDTARGQINDYISRYRRKGDAGGLKSFTTMQTALNSLAGYYTSYGARPIPEKLKKRLQLEFTQAERSIERGV

This data set covers variants of B1. The note with it: Synechocystis sp. (strain ATCC 27184 / PCC 6803 / Kazusa); pH 7; Thermal; CD; Sodium phosphate Tris HCl 20 mM; transition: 2; reversible: Yes; structure 2KMF; whole UniProt chain shown.
For orientation: Tm means the temperature at which the thermal transition is half complete. As to MSFLKNQLSRLLALILVVAIGLTACDSGTGLTGNYSQDTLTVIATLREAIDLPQDAPNRQEVQDTARGQINDYISRYRRKGDAGGLKSFTTMQTALNSLAGYYTSYGARPIPEKLKKELQLEFTQAERSIERGV, the Tm was 56.6 °C.

MSFLKNQLSRLLALILVVAIGLTACDSGTGLTGNYSQDTLTVIATLREAIDLPQDAPNRQEVQDTARGQINDYISRYRRKGDAGGLKSFTTMQTALNSLAGYYTSYGARPIPEKLKKRLQLRFTQAERSIERGV: the melting temperature (Tm) was 54.4 °C. To MSFLKNQLSRLLALILVVAIGLTACDSGTGLTGNYSQDTLTVIATLREAIDLPQDAPNRQEVQDTARGQINDYISRYRRKGDAGGLKSFTTMQTALNSLAGYYTSYGARGGGEKLKKRLQLEFTQAERSIERGV belongs 43.3 °C. With MSFLKNQLSRLLALILVVAIGLTACDSGTGLTGNYSQDTLTVIATLREAIDLPQDAPNRQEVQDTARGQINDYISRYRRKGDAGGLKSFTTMQTALNSLAGHYTSYGARPIPEKLKKRLQLEFTQAERSIERGV the figure was 56.3 °C. To MSFLKNQLSRLLALILVVAIGLTACDSGTGLTGNYSQDTLTVIATLREAIDLPQDAPNRQEVQDTARGQINDYISRYRRKGDAGGLKSFTTMQTALNSLAGYYTSYGARPIPEKLKKRLQLEFTQARRSIERGV belongs 56.1 °C; to MSFLKNQLSRLLALILVVAIGLTACDSGTGLTGNYSQDTLTVIATLREAIDLPQDAPNRQEVQDTARGQINDYISRYERKGDAGGLKSFTTMQTALNSLAGYYTSYGARPIPEKLKKRLQLEFTQAERSIERGV, 57 °C. For MSFLKNQLSRLLALILVVAIGLTACDSGTGLTGNYSQATLTVIATLREAIDLPQDAPNRQEVQDTARGQINDYISRYRRKGDAGGLKSFTTMQTALNSLAGYYTSYGARPIPEKLKKRLQLEFTQAERSIERGV, the Tm was determined as 41.9 °C. With MSFLKNQLSRLLALILVVAIGLTACDSGTGLTGNYSQDTLTVIATLREAIDLPQDAPNRQEVQDTARGQINDYISRYRRKGDAGGLKSFTTMQTALNSLAGYYTSYGARPIPEKLKKRLQLEFTQAERSIEEGV the figure was 60.2 °C; with MSFLKNQLSRLLALILVVAIGLTACDSGTGLTGNYSQDTLTVIATLREAIDLPQDAPNRQEVQDTARGQINDYISRYRRKGDAGGLKSFTTMQTALNSLAGYYTSYGARGIGEKLKKRLQLEFTQAERSIERGV, 49.2 °C. With MSFLKNQLSRLLALILVVAIGLTASDSGTGLTGNYSQDTLTVIATLREAIDLPQDAPNRQEVQDTARGQINDYISRYRRKGDAGGLKSFTTMQTALNSLAGYYTSYGARPIPEKLKKRLQLEFTQAERSIERGV the figure was 58.2 °C.

The values are drawn from FireProtDB (doi:10.1007/s00249-013-0926-9).
